4 molecules from patent publication WO2024019110A1 (dated 2024) can be followed below.

B1: recombinant Fab protein of antibody No. 2 (Fab, V domains shown)
VH: EVQLVESGGGVVQPGRSLRLSCAASGFKFSKFAMHWVRQAPGKGPEWVAVISYDGNQYHSADSVKGRFTISRDNSFNTLYLQMNSLGPEDTAVYYCARDGPDTSGYYANIYFDFWGQGTLVTVSS
VL: QSVLTQPPSVSGAPGQRVTISCTGSSSNIGAGYDVHWYQQLPGRAPKLLIFDNNNRPSGVPDRFSGSKSGTSASLAITGLQTEDEAYYYCQSYDNSLILAVFGGGTKVTVL
B2: recombinant Fab protein of antibody No. 5 (Fab, V domains shown)
VH: EVQLVESGGGLVQPGGSLRLSCAASGFTFYSYWMTWVRQAPGKGLEWVANIKHDESESHYVDSVRGRFTISRDNAKNSVYLQMKGLRAEDTAVYYCARDGGYNILTAYYHAPSYWGQGTLVTVSS
VL: QSALTQPASVSGSPGQSITISCTGTSSDVGGYNFVSWYRQYPGKAPQLMIYDVSRRPSGDSDRFSGSKSGNTASLTISGLQAEDEAEYHCSSYTGRSPYVVFGGGTKVTVL
B3: recombinant Fab protein of antibody No. 6 (Fab, V domains shown)
VH: QVQLVQSGPEVKKPGTSVKVSCKASGFTFYYSAVQWVRQARGQRLEWLGWMAVGSGKANYAQKFQERLTLTRDMSTSTAYMELSSLRSEDTAVYYCAAPNCTGGSCYDGFNLWGQGTVVTVSS
VL: EIVLTQSPGTLSLSPGDRAILSCRASQTVNSNYLAWYQQKPGQAPRLLIYGTSSRATGIPDRFSGSGSGTDFTLTISRLEPEDFAVYYCQQYGSSPWLFGQGTKVEIK
B4: recombinant Fab protein of antibody No. 7 (Fab, V domains shown)
VH: EVQLLESGGGLVQPGGSLRLSCAASGFTFSRYALSWVRQAPGKGLEWVSAISGAAITTYYADSVKGRFTISRDDSRNTLFMQMDSLRAEDTAVYYCAKGDYYDSSGYLAEYFPHWGQGTLVTVSS
VL: SYELTQPPSVSVSPGQTARITCFADALPKQHAYWYQQKAGQAPVLVIFKDTERPSGIPKRFSGSRSGATVTLTISGVQAEDEADYYCQSTDISGVLFGGGTKLTVL

A value given as a limit tells only on which side of the number the result lay.

For the assay, the target named is Wuhan strain RBD (Ancestral), biotinylated (SARS-CoV-2 (Wuhan strain), UniProt P0DTC2 331-529). In words: BLI (Octet), biotinylated RBD on streptavidin biosensor, Fab in solution. In general terms: In BLI a coated tip is dipped into the sample, and binding shifts an interference pattern.
On to B1, for which the Kd (as a rule, the equilibrium constant for the complex coming apart) is at most 100 nM. With B2, the Kd is at most 100 nM. The same measure for B3: at most 100 nM; for B4: at most 100 nM.
